{
  "source": "patent US20240209076A1",
  "about": "(KODIAK SCIENCES, published 2024)",
  "key": {"[1]": {"biological_target": "T1, recombinant human IL-6 (human, UniProt P05231 30-212)", "T1 sequence (P05231 30-212 limits assumed)": "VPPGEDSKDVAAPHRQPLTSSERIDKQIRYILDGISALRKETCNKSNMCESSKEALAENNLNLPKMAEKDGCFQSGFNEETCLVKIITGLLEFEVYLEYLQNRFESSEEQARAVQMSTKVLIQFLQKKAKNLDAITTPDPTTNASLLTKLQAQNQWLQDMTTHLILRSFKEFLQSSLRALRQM", "test": "IL-6/IL-6R competitive ELISA as in example 3", "experimental": "The plate was blocked in 2% bovine serum albumin (BSA) in PBS-Tween (PBST) for 2 hours. […] This mixture was then added to the ELISA plate following a wash step."}, "[2]": {"biological_target": "VEGF (UniProt P15692-4 27-191, limits assumed)", "test": "cell-based or functional assay"}, "[3]": {"biological_target": "T2, biotinylated VEGF (R&D Systems) (UniProt P15692-4 27-191, limits assumed, biotinylated)", "T2 construct": "also called btVEGF; bt-VEGF", "T2 sequence (P15692 other isoform, or with tags, fused parts or gaps limits assumed)": "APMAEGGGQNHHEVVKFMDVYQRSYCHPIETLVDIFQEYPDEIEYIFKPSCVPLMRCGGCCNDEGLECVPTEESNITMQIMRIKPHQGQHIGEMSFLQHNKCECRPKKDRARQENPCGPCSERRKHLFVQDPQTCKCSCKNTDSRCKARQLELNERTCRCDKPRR", "test": "VEGF/VEGFR competitive ELISA as in example 3", "experimental": "The plate was blocked in 2% bovine serum albumin (BSA) in PBS-Tween (PBST) for 2 hours.\nThis assay was performed as described in example 3."}, "[4]": {"biological_target": "T1, recombinant human IL-6", "test": "SPR, antibody captured on Protein A, IL-6 as analyte", "experimental": "Antibodies were captured on a Protein A chip (GE) by injecting 1:20 dilution of cell supernatant at 10 μL/min for 60 seconds. […] The sensor chip was regenerated by a 60 seconds injection of 10 mM Glycine pH 1.7 at flow rate of 50 μL/min. […] For this setup, 1 μg/mL of purified antibody was injected over a Protein A chip at 10 μL/min for 25-28 seconds. Data analysis for supernatant and purified samples were performed using BIAevaluation software (GE). All sensorgrams were double reference subtracted and fit using a 1:1 Langmuir binding model."}, "[5]": {"biological_target": "T3, VEGF (UniProt P15692-4 27-191, limits assumed)", "T3 construct": "also called VEGF-A", "test": "KinExA 3200, calculated as Kd x kon, 37 C", "T3 sequence (P15692 other isoform, or with tags, fused parts or gaps limits assumed)": "as above"}, "[6]": {"biological_target": "T3, VEGF", "test": "KinExA 3200, in solution, 37 C"}, "[7]": {"biological_target": "T3, VEGF", "test": "KinExA 3200, kinetic measurement, 37 C"}, "[8]": {"biological_target": "T4, human IL-6 (human, UniProt P05231 30-212)", "T4 sequence (P05231 30-212 limits assumed)": "as the sequence (P05231 30-212 limits assumed) above", "test": "KinExA 3200, calculated as Kd x kon, 37 C"}, "[9]": {"biological_target": "T4, human IL-6", "test": "KinExA 3200, kinetic measurement, 37 C"}, "[10]": {"biological_target": "T4, human IL-6", "test": "KinExA 3200, in solution, 37 C"}},
  "data": [
    {"binder": "VEGFR-AntiIL6-OG1802 (other, OG1802 phosphorylcholine polymer (about 794 kDa) on Cys L443C (EU numbering; 660C in SEQ ID NO: 170) by maleimide-cysteine chemistry, one polymer per molecule, also called bioconjugate) heavy: SDTGRPFVEMYSEIPEIIHMTEGRELVIPCRVTSPNITVTLKKFPLDTLIPDGKRIIWDSRKGFIISNATYKEIGLLTCEATVNGHLYKTNYLTHRQTNTIIDVVLSPSHGIELSVGEKLVLNCTARTELNVGIDFNWEYPSSKHQHKKLVNRDLKTQSGSEMKKFLSTLTIDGVTRSDQGLYTCAASSGLMTKKNSTFVRVHEKGGGGSGGGGSEVQLVESGGGLVQPGGSLRLSCAASGFTFSPFAMHWVRQAPGKGLEWVAKISPGGSWTYYSDTVTDRFTFSLDTSKSTAYLQMNSLRAEDTAVYYCARQAWGYYALDIWGQGTLVTVSSASTKGPSVFPLAPSSKSTSGGTAALGCLVKDYFPEPVTVSWNSGALTSGVHTFPAVLQSSGLYSLSSVVTVPSSSLGTQTYICNVNHKPSNTKVDKKVEPKSCDKTHTCPPCPAPEAAGAPSVFLFPPKPKDTLMISRTPEVTCVVVDVSHEDPEVKFNWYVDGVEVHNAKTKPREEQYNSTYRVVSVLTVLHQDWLNGKEYKCKVSNKALPAPIEKTISKAKGQPREPQVYTLPPSREEMTKNQVSLTCLVKGFYPSDIAVEWESNGQPENNYKTTPPVLDSDGSFFLYSKLTVDKSRWQQGNVFSCSVMHEALHNHYTQKSLSCSPGK light: DIQLTQSPSSLSASVGDRVTITCSASISVSYLYWYQQKPGKAPKLLIYDDSSLASGVPSRFSGSGSGTDFTLTISSLQPEDFATYYCQQWSGYPYTFGQGTKVEIKRTVAAPSVFIFPPSDEQLKSGTASVVCLLNNFYPREAKVQWKVDNALQSGNSQESVTEQDSKDSTYSLSSTLTLSKADYEKHKVYACEVTHQGLSSPVTKSFNRGEC", "values": [
      {"measurement": "IC50", "setting": "[1]", "value": 0.23, "unit": "nM"},
      {"measurement": "cell based VEGF stimulated VEGFR reporter assay, average IC50", "setting": "[2]", "value": 0.35, "unit": "nM"},
      {"measurement": "IC50", "setting": "[3]", "value": 0.99, "unit": "nM"}
    ]},
    {"binder": "VEGFR-AntiIL6 (FIG. 27) (other) heavy: SDTGRPFVEMYSEIPEIIHMTEGRELVIPCRVTSPNITVTLKKFPLDTLIPDGKRIIWDSRKGFIISNATYKEIGLLTCEATVNGHLYKTNYLTHRQTNTIIDVVLSPSHGIELSVGEKLVLNCTARTELNVGIDFNWEYPSSKHQHKKLVNRDLKTQSGSEMKKFLSTLTIDGVTRSDQGLYTCAASSGLMTKKNSTFVRVHEKGGGGSGGGGSEVQLVESGGGLVQPGGSLRLSCAASGFTFSPFAMHWVRQAPGKGLEWVAKISPGGSWTYYSDTVTDRFTFSLDTSKSTAYLQMNSLRAEDTAVYYCARQAWGYYALDIWGQGTLVTVSSASTKGPSVFPLAPSSKSTSGGTAALGCLVKDYFPEPVTVSWNSGALTSGVHTFPAVLQSSGLYSLSSVVTVPSSSLGTQTYICNVNHKPSNTKVDKKVEPKSCDKTHTCPPCPAPEAAGAPSVFLFPPKPKDTLMISRTPEVTCVVVDVSHEDPEVKFNWYVDGVEVHNAKTKPREEQYNSTYRVVSVLTVLHQDWLNGKEYKCKVSNKALPAPIEKTISKAKGQPREPQVYTLPPSREEMTKNQVSLTCLVKGFYPSDIAVEWESNGQPENNYKTTPPVLDSDGSFFLYSKLTVDKSRWQQGNVFSCSVMHEALHNHYTQKSLSCSPGK light: DIQLTQSPSSLSASVGDRVTITCSASISVSYLYWYQQKPGKAPKLLIYDDSSLASGVPSRFSGSGSGTDFTLTISSLQPEDFATYYCQQWSGYPYTFGQGTKVEIKRTVAAPSVFIFPPSDEQLKSGTASVVCLLNNFYPREAKVQWKVDNALQSGNSQESVTEQDSKDSTYSLSSTLTLSKADYEKHKVYACEVTHQGLSSPVTKSFNRGEC", "values": [
      {"measurement": "IC50", "setting": "[1]", "value": 0.26, "unit": "nM"},
      {"measurement": "cell based VEGF stimulated VEGFR reporter assay, average IC50", "setting": "[2]", "value": 0.51, "unit": "nM"},
      {"measurement": "IC50", "setting": "[3]", "value": 1.98, "unit": "nM"}
    ]},
    {"binder": "anti-IL-6 antibody, heavy chain G66D, light chain wild-type (antibody, human IgG1, V domains shown, see m23; engineered human IgG1) VH: EVQLVESGGGLVQPGGSLRLSCAASGFTFSPFAMSWVRQAPGKGLEWVAKISPGGSWTYYSDTVTDRFTFSLDTSKSTAYLQMNSLRAEDTAVYYCARQLWGYYALDIWGQGTLVTVSS VL: DIQLTQSPSSLSASVGDRVTITCSASISVSYMYWYQQKPGKAPKLLIYDMSNLASGVPSRFSGSGSGTDFTLTISSLQPEDFATYYCMQWSGYPYTFGQGTKVEIK", "values": [
      {"measurement": "fold decrease in KD relative to wild-type", "setting": "[4]", "value": "~2", "unit": "fold"}
    ]},
    {"binder": "VEGFR-AntiIL6 (other, VEGF trap (VEGFR1 domain 2 - VEGFR2 domain 3) fused by a GS linker to the N-terminus of the anti-IL-6 IgG1 heavy chain; also called VEGF Trap-anti-IL6 antibody fusion) heavy: SDTGRPFVEMYSEIPEIIHMTEGRELVIPCRVTSPNITVTLKKFPLDTLIPDGKRIIWDSRKGFIISNATYKEIGLLTCEATVNGHLYKTNYLTHRQTNTIIDVVLSPSHGIELSVGEKLVLNCTARTELNVGIDFNWEYPSSKHQHKKLVNRDLKTQSGSEMKKFLSTLTIDGVTRSDQGLYTCAASSGLMTKKNSTFVRVHEKGGGGSGGGGSEVQLVESGGGLVQPGGSLRLSCAASGFTFSPFAMHWVRQAPGKGLEWVAKISPGGSWTYYSDTVTDRFTFSLDTSKSTAYLQMNSLRAEDTAVYYCARQAWGYYALDIWGQGTLVTVSSASTKGPSVFPLAPSSKSTSGGTAALGCLVKDYFPEPVTVSWNSGALTSGVHTFPAVLQSSGLYSLSSVVTVPSSSLGTQTYICNVNHKPSNTKVDKKVEPKSCDKTHTCPPCPAPEAAGAPSVFLFPPKPKDTLMISRTPEVTCVVVDVSHEDPEVKFNWYVDGVEVHNAKTKPREEQYNSTYRVVSVLTVLHQDWLNGKEYKCKVSNKALPAPIEKTISKAKGQPREPQVYTLPPSREEMTKNQVSLTCLVKGFYPSDIAVEWESNGQPENNYKTTPPVLDSDGSFFLYSKLTVDKSRWQQGNVFSCSVMHEALHNHYTQKSLSCSPGK light: DIQLTQSPSSLSASVGDRVTITCSASISVSYLYWYQQKPGKAPKLLIYDDSSLASGVPSRFSGSGSGTDFTLTISSLQPEDFATYYCQQWSGYPYTFGQGTKVEIKRTVAAPSVFIFPPSDEQLKSGTASVVCLLNNFYPREAKVQWKVDNALQSGNSQESVTEQDSKDSTYSLSSTLTLSKADYEKHKVYACEVTHQGLSSPVTKSFNRGEC", "values": [
      {"measurement": "koff", "setting": "[5]", "value": "8.49e-05", "unit": "s⁻¹"},
      {"measurement": "Kd", "setting": "[6]", "value": 0.0021, "unit": "nM"},
      {"measurement": "kon", "setting": "[7]", "value": "4.04e+07", "unit": "M⁻¹ s⁻¹"},
      {"measurement": "koff", "setting": "[8]", "value": 0.000242, "unit": "s⁻¹"},
      {"measurement": "kon", "setting": "[9]", "value": "1.15e+07", "unit": "M⁻¹ s⁻¹"},
      {"measurement": "Kd", "setting": "[10]", "value": 0.0211, "unit": "nM"}
    ]},
    {"binder": "VEGFR-AntiIL6-OG1802 (other, OG1802 phosphorylcholine biopolymer (about 794 kDa) on Cys L443C (EU numbering; 660C in SEQ ID NO: 170) by maleimide; one polymer per molecule, Polymer conjugate of m3; also called VEGFR-AntiIL6 bioconjugate) heavy: SDTGRPFVEMYSEIPEIIHMTEGRELVIPCRVTSPNITVTLKKFPLDTLIPDGKRIIWDSRKGFIISNATYKEIGLLTCEATVNGHLYKTNYLTHRQTNTIIDVVLSPSHGIELSVGEKLVLNCTARTELNVGIDFNWEYPSSKHQHKKLVNRDLKTQSGSEMKKFLSTLTIDGVTRSDQGLYTCAASSGLMTKKNSTFVRVHEKGGGGSGGGGSEVQLVESGGGLVQPGGSLRLSCAASGFTFSPFAMHWVRQAPGKGLEWVAKISPGGSWTYYSDTVTDRFTFSLDTSKSTAYLQMNSLRAEDTAVYYCARQAWGYYALDIWGQGTLVTVSSASTKGPSVFPLAPSSKSTSGGTAALGCLVKDYFPEPVTVSWNSGALTSGVHTFPAVLQSSGLYSLSSVVTVPSSSLGTQTYICNVNHKPSNTKVDKKVEPKSCDKTHTCPPCPAPEAAGAPSVFLFPPKPKDTLMISRTPEVTCVVVDVSHEDPEVKFNWYVDGVEVHNAKTKPREEQYNSTYRVVSVLTVLHQDWLNGKEYKCKVSNKALPAPIEKTISKAKGQPREPQVYTLPPSREEMTKNQVSLTCLVKGFYPSDIAVEWESNGQPENNYKTTPPVLDSDGSFFLYSKLTVDKSRWQQGNVFSCSVMHEALHNHYTQKSLSCSPGK light: DIQLTQSPSSLSASVGDRVTITCSASISVSYLYWYQQKPGKAPKLLIYDDSSLASGVPSRFSGSGSGTDFTLTISSLQPEDFATYYCQQWSGYPYTFGQGTKVEIKRTVAAPSVFIFPPSDEQLKSGTASVVCLLNNFYPREAKVQWKVDNALQSGNSQESVTEQDSKDSTYSLSSTLTLSKADYEKHKVYACEVTHQGLSSPVTKSFNRGEC", "values": [
      {"measurement": "koff", "setting": "[5]", "value": "3.83e-06", "unit": "s⁻¹"},
      {"measurement": "Kd", "setting": "[6]", "value": 0.00102, "unit": "nM"},
      {"measurement": "kon", "setting": "[7]", "value": "3.75e+06", "unit": "M⁻¹ s⁻¹"},
      {"measurement": "koff", "setting": "[8]", "value": "9.66e-05", "unit": "s⁻¹"},
      {"measurement": "kon", "setting": "[9]", "value": "8e+06", "unit": "M⁻¹ s⁻¹"},
      {"measurement": "Kd", "setting": "[10]", "value": 0.0121, "unit": "nM"}
    ]}
  ]
}
